Measurements from patent publication US20040170990A1, “Intracellular nucleic acid inhibitors of small guanine nucleotide exchange factors” (published 2004).

Experiments:
[1] = target: chimera ARF-1 protein fused at the carboxy terminus to the constant CH1 and CH2 domains of human IgG immunoglobulin (human) (UniProt P84077); assay: cell-based or functional assay
[2] = target: T1, cytohesin-1 (full-length) (UniProt Q15438); assay: filter; conditions: non-selected library; 3 mM MgCl2, 37 C
T1 sequence: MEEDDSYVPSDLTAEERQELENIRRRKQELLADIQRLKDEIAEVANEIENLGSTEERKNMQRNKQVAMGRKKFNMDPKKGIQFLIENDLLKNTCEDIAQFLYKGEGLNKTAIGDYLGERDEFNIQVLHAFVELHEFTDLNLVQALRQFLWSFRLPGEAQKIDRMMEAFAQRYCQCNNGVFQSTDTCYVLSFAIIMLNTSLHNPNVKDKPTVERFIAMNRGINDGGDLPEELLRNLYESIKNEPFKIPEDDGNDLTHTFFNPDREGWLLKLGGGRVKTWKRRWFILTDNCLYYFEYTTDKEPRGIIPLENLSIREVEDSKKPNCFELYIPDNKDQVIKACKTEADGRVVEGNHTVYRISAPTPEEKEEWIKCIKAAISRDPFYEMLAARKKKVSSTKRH

[3] = target: T2, cytohesin-1 (full-length) (UniProt Q15438 Q15438:1-398); assay: non-binding negative control; conditions: tags: 6xHis (cytohesin-1-His6), E. coli, Ni-NTA
[4] = target: T3, Gea2 Sec7 domain (Gea2-Sec7, G2-Sec7) (UniProt P39993 P39993:570-714); assay: filter; 3 mM MgCl2, 37 C; conditions: tags: 6xHis, provided by Cathy Jackson; label: 5'-32P
T3 chain: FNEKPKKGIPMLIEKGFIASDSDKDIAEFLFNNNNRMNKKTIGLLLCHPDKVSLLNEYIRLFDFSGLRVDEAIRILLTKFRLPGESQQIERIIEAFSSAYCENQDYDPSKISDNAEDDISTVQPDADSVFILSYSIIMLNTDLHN
Method: (§1) Natl. Acad. Sci. USA 90 (1993), 11227-11231). […] Of the analysed sequences the clone M69 bound cytohesin-1-His6 with a dissociation constant of 16 nM (see Table 2). As controls the same binding experiments were carried out with E. coli lysates which were treated similarly to the cytohesin-1 expressed in E. coli.
(§2) In the next step the binding site of the aptamer M69 on cytohesin-1 was delimited in more detail. For this purpose filter binding studies were carried out using subdomain constructs of cytohesin-1. The PH domain and the Sec7 domain of cytohesin-1 were overexpressed as 6×His-Tag proteins (PH-His6 and C1-Sec7-His6) in E. coli and purified as described for cytohesin-1-His6. The synthetic polybasic C-peptide was obtained from the company TopLab (Munich). The Sec7 domain of the large Brefeldin A-sensitive ARF-GEF's Gea2 (Gea2-Sec7) was made available as 6×His-Tag protein by Cathy Jackson (Departement de Biologie Cellulaire et Moleculaire, CEA/Saclay, France). […] On the other hand, no interaction with the PH domain or the Sec7 domain of Gea2 could be detected (see Table 2). […] The aptamer M5 on the other hand recognises both the Sec7 domain of cytohesin-1 and also of Gea2 with approximately the same affinity. The PH domain of cytohesin-1 is recognised an order of magnitude less well. The aptamer M56 however binds best to the full-length protein cytohesin-1 and barely to the Sec7 domain of Gea2. Since both the Sec7 domain and also the PH domain of cytohesin-1 are bound with somewhat reduced affinities compared with the full-length protein, the aptamer appears to recognise a binding site on cytosin-1 which is composed of both domains.

[5] = target: T4, cytohesin-1 PH domain (C1-PH) (UniProt Q15438 Q15438:260-377); assay: filter; 3 mM MgCl2, 37 C; conditions: tags: 6xHis, E. coli; label: 5'-32P
T4 chain: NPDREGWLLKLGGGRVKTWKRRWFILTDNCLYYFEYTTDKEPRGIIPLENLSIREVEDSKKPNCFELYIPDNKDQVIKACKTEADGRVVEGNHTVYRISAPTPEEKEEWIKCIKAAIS
Method: as §1, §2

[6] = target: T5, cytohesin-1 Sec7 domain (C1-Sec7) (UniProt Q15438 Q15438:73-202); assay: filter; 3 mM MgCl2, 37 C; conditions: tags: 6xHis, E. coli
T5 chain: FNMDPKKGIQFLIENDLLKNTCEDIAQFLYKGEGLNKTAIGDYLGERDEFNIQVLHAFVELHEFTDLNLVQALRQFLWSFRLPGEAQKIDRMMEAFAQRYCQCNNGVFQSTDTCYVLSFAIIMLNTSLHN
Method: as §1, §2

[7] = target: T2, cytohesin-1 (full-length); assay: filter; 3 mM MgCl2, 37 C; conditions: tags: 6xHis (cytohesin-1-His6), E. coli, Ni-NTA
Method: as §1, §2

[8] = target: T2, cytohesin-1 (full-length); assay: filter; 3 mM MgCl2, 37 C; conditions: tags: 6xHis (cytohesin-1-His6), E. coli, Ni-NTA; remark: listed apart in the source
Method: Filter binding experiments were carried out in order to test whether the selected aptamer sequences can also recognise native cytohesin-1 in solution. The interaction analyses are described in detail in the literature. (Jellinek et al., Proc. Natl. Acad. Sci. USA 90 (1993), 11227-11231; Jellinek et al., Biochemistry 33 (1994), 10450-10456).
Increasing concentrations of cytohesin-1-His6 (0.1 nM to 500 nM) were incubated with the aptamers according to the invention (1.0 nM) radioactively labelled with ³²P at the 5′ end for 1 h at 37° C. in selection buffer. The RNA/cytohesin-1-His6 complexes were then filtered over nitrocellulose acetate mixed membranes (HAWP 0.45 μm, Millipore). The filter was then rinsed with 5 ml of washing buffer (3 mM MgCl₂, 137 mM NaCl, 2.7 mM KCl, 4.3 mM Na₂HPO₄.7H₂O, 1.4 mM KH₂PO₄). Before the experiment the filters were pretreated for 10 minutes with 40 mM 6-aminocaproic acid and 20% ethanol. Radioactive RNA retained on the filters was quantified by analysis using a phosphor imager (Storm 860, Amersham). The dissociation constant (Kd) was determined as described by Jellinek et al. (Jellinek et al., Proc. Natl. Acad. Sci. USA 90 (1993), 11227-11231). […] Of the analysed sequences the clone M69 bound cytohesin-1-His6 with a dissociation constant of 16 nM (see Table 2). […]

[9] = target: T3, Gea2 Sec7 domain (Gea2-Sec7, G2-Sec7); assay: filter; no measurable interaction; conditions: tags: 6xHis, provided by Cathy Jackson
Method: as §1
as §2, with “The aptamer M56 however binds best to the full-length protein cytohesin-1 and barely to the Sec7 domain of Gea2. Since both the Sec7 domain and also the PH domain of cytohesin-1 are bound with somewhat reduced affinities compared with the full-length protein, the aptamer appears to recognise a binding site on cytosin-1 which is composed of both domains.” left out

[10] = target: T4, cytohesin-1 PH domain (C1-PH); assay: filter; no measurable interaction; conditions: tags: 6xHis, E. coli
Method: as §1
as §2, with “The aptamer M56 however binds best to the full-length protein cytohesin-1 and barely to the Sec7 domain of Gea2. Since both the Sec7 domain and also the PH domain of cytohesin-1 are bound with somewhat reduced affinities compared with the full-length protein, the aptamer appears to recognise a binding site on cytosin-1 which is composed of both domains.” left out

[11] = target: T3, Gea2 Sec7 domain (Gea2-Sec7, G2-Sec7); assay: filter; barely binds; 3 mM MgCl2, 37 C; conditions: tags: 6xHis, provided by Cathy Jackson; label: 5'-32P
Method: as §1, with “The dissociation constant (Kd) was determined as described by Jellinek et al. (Jellinek et al., Proc. Natl.” for “Natl.”
as §2, with “The aptamer M56 however binds best to the full-length protein cytohesin-1 and barely to the Sec7 domain of Gea2. Since both the Sec7 domain and also the PH domain of cytohesin-1 are bound with somewhat reduced affinities compared with the full-length protein, the aptamer appears to recognise a binding site on cytosin-1 which is composed of both domains.” left out

[12] = target: T2, cytohesin-1 (full-length); assay: filter; 3 mM MgCl2, PBS-type buffer pH 7.3, 37 C; conditions: tags: 6xHis (cytohesin-1-His6), E. coli, Ni-NTA; label: 5'-32P
Method: Increasing concentrations of cytohesin-1-His6 (0.1 nM to 500 nM) were incubated with the aptamers according to the invention (1.0 nM) radioactively labelled with ³²P at the 5′ end for 1 h at 37° C. in selection buffer. The RNA/cytohesin-1-His6 complexes were then filtered over nitrocellulose acetate mixed membranes (HAWP 0.45 μm, Millipore). The filter was then rinsed with 5 ml of washing buffer (3 mM MgCl₂, 137 mM NaCl, 2.7 mM KCl, 4.3 mM Na₂HPO₄.7H₂O, 1.4 mM KH₂PO₄). Before the experiment the filters were pretreated for 10 minutes with 40 mM 6-aminocaproic acid and 20% ethanol. Radioactive RNA retained on the filters was quantified by analysis using a phosphor imager (Storm 860, Amersham). The dissociation constant (Kd) was determined as described by Jellinek et al. (Jellinek et al., Proc. Natl. Acad. Sci. USA 90 (1993), 11227-11231). […] Of the analysed sequences the clone M69 bound cytohesin-1-His6 with a dissociation constant of 16 nM (see Table 2). As controls the same binding experiments were carried out with E. coli lysates which were treated similarly to the cytohesin-1 expressed in E. coli.

Sequence of chimera ARF-1 protein fused at the carboxy terminus to the constant CH1 and CH2 domains of human IgG immunoglobulin (human) (P84077 whole entry, stated change not applied, the tested form may be a part): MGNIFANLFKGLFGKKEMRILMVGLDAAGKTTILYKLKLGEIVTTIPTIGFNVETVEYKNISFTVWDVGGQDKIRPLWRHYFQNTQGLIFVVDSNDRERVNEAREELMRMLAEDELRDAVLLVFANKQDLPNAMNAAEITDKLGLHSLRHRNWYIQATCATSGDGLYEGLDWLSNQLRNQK

cytohesin-1 (full-length protein) (from UniProt Q15438 1-398) (enzyme)
binding of [gamma-35S]-GTP to ARF-1 (GDP/GTP exchange assay) [1]: 10 fold

CUAUAGGGAGAGACAAGCUUGGGUCNNNNNNNNNNNNNNNNNNNNNNNNNNNNNNNNNNNNNNNNAGAAGAGAAAGAGAAGUUAAUUAAGGAUCCUCAG [non-selected N40 RNA library]
Kd [2]: > 4000 nM

B1: ML1 (ssRNA)
RNA: GGGAGAGACAAGCUUGGGUCGUGUCUGUGUAGAGGACAGGGCGAGAGUCUGAUUGUCUGCAGAAGAGAAAGAGAAGUUAAUUAAGGAUCCUCAG
binding result [3]: no binding

B2: M5 (ssRNA)
RNA: GGGAGAGACAAGCUUGGGUCGGGUUCGCUAAGUUGGUCUACCCCUCUCGAAUAUCCGUUAAGAAGAGAAAGAGAAGUUAAUUAAGGAUCCUCAG
Kd [4]: 48 nM
Kd [5]: 480 nM
Kd ([6]; label: 5'-32P): 36 nM
Kd ([7]; label: 5'-32P): 40 nM

B3: M3 (ssRNA)
RNA: GGGAGAGACAAGCUUGGGUCAGGGAGGGUAGGGAUUUGGUUGUCCCAUGUUCGCAGCCGUAGAAGAGAAAGAGAAGUUAAUUAAGGAUCCUCAG
binding result [8]: binds

B4: M69 (ssRNA)
RNA: GGGAGAGACAAGCUUGGGUCUAUUAUGCCUUUAGCUAGCGCAUUCUGUGGGGUGGGUGGAAGAAGAGAAAGAGAAGUUAAUUAAGGAUCCUCAG
binding result [9]: no binding
binding result [10]: no binding
Kd [6]: 16 nM
Kd [7]: 16 nM

B5: M56 (ssRNA)
RNA: GGGAGAGACAAGCUUGGGUCUGUUGUUGGACCAGUGUUAUUUUACGCGAUUGUGCGGUUGUGAAGAGAAAGAGAAGUUAAUUAAGGAUCCUCAG
Kd [11]: > 1000 nM
Kd [12]: 5 nM
Kd [5]: 150 nM
Kd ([6]; label: 5'-32P): 280 nM

B6: M41 (ssRNA)
RNA: GGGAGAGACAAGCUUGGGUCGUCAUCCGUGUUUUGUCAUGUUUUGAUGGGGUUUGGGGUGUGAUAAGAGAAAGAGAAGUUAAUUAAGGAUCCUCAG
binding result [8]: binds
